“And” between values parts separate entries of the source, which are not always exact repeats. Identical values can stand only once.
What was measured:
Conditions in all cases: remark: other sources report otherwise
[1] = molecular target: recombinant soluble homotrimeric HA, A/duck/Yangzhou/02/2005 (H8N4) (influenza A virus A/duck/Yangzhou/02/2005 (H8N4)); assay: microarray, trimeric HA, transfection supernatant
[2] = molecular target: recombinant soluble homotrimeric HA, A/Hong Kong/156/97 (H5N1) (influenza A virus A/Hong Kong/156/97 (H5N1)); assay: microarray, trimeric HA, transfection supernatant
[3] = molecular target: recombinant soluble homotrimeric HA, A/Anhui/1/05 (H5N1) (influenza A virus A/Anhui/1/2005 (H5N1)); assay: microarray, trimeric HA, transfection supernatant
[4] = molecular target: recombinant soluble homotrimeric HA of A/Netherlands/219/03 (H7N7) (Influenza A virus A/Netherlands/219/03 (H7N7)); assay: HA microarray, control mAb
[5] = molecular target: recombinant soluble homotrimeric HA of A/chicken/Vietnam/NCVD-016/08 (H5N1) (Influenza A virus A/chicken/Vietnam/NCVD-016/2008 (H5N1)); assay: HA microarray, control mAb
[6] = molecular target: recombinant soluble homotrimeric HA of A/Egypt/3300-NAMRU3/08 (H5N1) (Influenza A virus A/Egypt/3300-NAMRU3/2008 (H5N1)); assay: HA microarray, control mAb
[7] = molecular target: recombinant soluble homotrimeric HA of A/Hong Kong/2108/03 (H9N2) (Influenza A virus A/Hong Kong/2108/2003 (H9N2)); assay: HA microarray, control mAb
[8] = molecular target: recombinant soluble homotrimeric HA of A/Vietnam/1203/04 (H5N1) (Influenza A virus A/Vietnam/1203/2004 (H5N1)); assay: HA microarray, control mAb
[9] = molecular target: recombinant soluble homotrimeric HA of A/swine/Ontario/01911-2/99 (H4N6) (Influenza A virus A/Swine/Ontario/01911-2/99 (H4N6)); assay: HA microarray, control mAb
[10] = molecular target: recombinant soluble homotrimeric HA of A/Indonesia/5/05 (H5N1) (Influenza A virus A/Indonesia/5/2005 (H5N1)); assay: HA microarray, control mAb
[11] = molecular target: recombinant soluble homotrimeric HA of A/California/4/09 (H1N1) (Influenza A virus A/California/04/2009 (H1N1)); assay: HA microarray, control mAb
[12] = molecular target: recombinant soluble homotrimeric HA of A/Solomon Islands/3/06 (H1N1) (Influenza A virus A/Solomon Islands/3/2006 (H1N1)); assay: HA microarray, control mAb
[13] = molecular target: recombinant soluble homotrimeric HA of A/Wisconsin/67/05 (H3N2) (Influenza A virus A/Wisconsin/67/2005 (H3N2)); assay: HA microarray, control mAb
[14] = molecular target: recombinant soluble homotrimeric HA of A/Japan/305/57 (H2N2) (Influenza A virus A/Japan/305/1957 (H2N2)); assay: HA microarray, control mAb
[15] = molecular target: recombinant soluble homotrimeric HA of A/duck/Yangzhou/02/2005 (H8N4) (Influenza A virus A/duck/Yangzhou/02/2005 (H8N4)); assay: HA microarray, control mAb
[16] = molecular target: recombinant soluble homotrimeric HA of A/Anhui/1/05 (H5N1) (Influenza A virus A/Anhui/1/2005 (H5N1)); assay: HA microarray, control mAb

B1: TCN-504 (3251_K17) (antibody, V domains shown)
VH: QVQLQESGPGLVKPSETLSLTCAVSGVSISNIDFYWGWIRQPPGKGLEWIGNIYYTGITFYNPSLSSRVAISIDTSKNQFSLTLTSVTAADTAMYYCARHYGDSEAINDAFDIWGQGTMLTVSS
VL: EIVMTQSPATLSVSPGERATLSCRASQSVGNSLAWYQQRPGQAPRLLIYGASTRATGIPPRFSGSGSGTEFTLTISSLQTEDFAVYYCQQYINWRPLSFGGGTKVEIK
[1]
  Trimeric HA Binding RLU: 19600 RLU and 19900 RLU and 35100 RLU
[2]
  Trimeric HA Binding RLU: 26600 RLU
[3]
  Trimeric HA Binding RLU: 30000 RLU and 14100 RLU and 37200 RLU
[4]
  Trimeric HA Binding RLU: 47200 RLU
[5]
  Trimeric HA Binding RLU: 38500 RLU
[6]
  Trimeric HA Binding RLU: 44400 RLU
[7]
  Trimeric HA Binding RLU: 454 RLU
[8]
  Trimeric HA Binding RLU: 196 RLU
[9]
  Trimeric HA Binding RLU: 14700 RLU
[10]
  Trimeric HA Binding RLU: 43300 RLU
[11]
  Trimeric HA Binding RLU: 3330 RLU
[12]
  Trimeric HA Binding RLU: 24100 RLU
[13]
  Trimeric HA Binding RLU: 40500 RLU
[14]
  Trimeric HA Binding RLU: 4090 RLU
[15]
  Trimeric HA Binding RLU: 14100 RLU
[16]
  Trimeric HA Binding RLU: 26200 RLU
